Numbered stars: 1 amine (or outer) side, 2 acyl side, 3 side chain; on linkers, the order of the positions; unused ones are H or OH. Bridge positions count the residues as written; N and C are the ends. Square brackets hold non-standard residues; d marks the D form. Ends that are not written are not given here. Phe(4-CF3) = N[C@@H](Cc1ccc(C(F)(F)F)cc1)C(=O)O; Phe(4-tBu) = CC(C)(C)c1ccc(C[C@H](N)C(=O)O)cc1; 2Nal = N[C@@H](Cc1ccc2ccccc2c1)C(=O)O; d1Nal = N[C@H](Cc1cccc2ccccc12)C(=O)O; d2Nal = N[C@H](Cc1ccc2ccccc2c1)C(=O)O; Diglycolyl = O=C(COCC(=O)[*:2])[*:1]; NMeR = CN[C@@H](CCCNC(=N)N)C(=O)O; hPhe = N[C@@H](CCc1ccccc1)C(=O)O; NMeE = CN[C@@H](CCC(=O)O)C(=O)O; Tic = O=C(O)[C@@H]1Cc2ccccc2CN1; β3hE = N[C@@H](CCC(=O)O)CC(=O)O; Pen = CC(C)(S)[C@H](N)C(=O)O; dNMeK = CN[C@H](CCCCN)C(=O)O; Dab = NCC[C@H](N)C(=O)O; Dap = NC[C@H](N)C(=O)O
B1: SEQ ID NO 75 (peptide)
peptide: Ac-[Pen][NMeR]SDTL[Pen][2Nal]E-NH2
modifications: disulfide 1-7 (inferred)
B2: SEQ ID NO 65 (peptide)
peptide: Ac-[Pen][NMeR]SDTL[Pen]WE[dK]
modifications: disulfide 1-7 (inferred); not fully specified (residue 10); printed as Ac-Pen-(N-Me-R)-S-D-T-L-Pen-W-E-k-Ac
B3: SEQ ID NO 6 (peptide)
peptide: Diglycolyl-C[NMeR]SDTLCW-NH2
modifications: disulfide 1-7 (inferred); not fully specified; printed as DIG-NH2-C-(N-Me-R)-S-D-T-L-C-W-NH2
B4: SEQ ID NO 191 (peptide)
peptide: Ac-[Pen][NMeR]SDDL[Pen][Phe(4-tBu)][β3hE][dK]-NH2
modifications: disulfide 1-7 (inferred); also: homodimer via IDA
B5: SEQ ID NO 35 (peptide)
peptide: Ac-[Pen][NMeR]SDTL[Pen][d2Nal]E[dK]-NH2
modifications: disulfide 1-7 (inferred); also: homodimer via DIG linker
B6: SEQ ID NO 37 (peptide)
peptide: Ac-C[NMeR]SDTL[Pen]W[dK]-NH2
modifications: disulfide 1-7 (inferred); also: homodimer via PEG25 linker
B7: SEQ ID NO 3 (peptide)
peptide: Ac-[Pen][NMeR]SDTL[Pen][Phe(4-CF3)][dE][dK]-NH2
modifications: disulfide 1-7 (inferred); also: homodimer via DIG linker
B8: SEQ ID NO 71 (peptide)
peptide: Ac-[Pen][NMeR]SDTL[Pen]W[dE][dK]-NH2
modifications: disulfide 1-7 (inferred); also: homodimer linked by IDA, IDA-Biotine
B9: SEQ ID NO 80 (peptide)
peptide: Ac-[Pen][NMeR]SDTL[Pen][Tic][dE][dK]-NH2
modifications: disulfide 1-7 (inferred); also: homodimer linked by DIG
B10: SEQ ID NO 66 (peptide)
peptide: Ac-[Pen][NMeR]SDTL[Pen]W[dE][dK]
modifications: disulfide 1-7 (inferred); not fully specified (residue 10); printed as Ac-Pen-(N-Me-R)-S-D-T-L-Pen-W-e-k-Ac
B11: SEQ ID NO 82 (peptide)
peptide: Ac-[Pen][NMeR]SDTL[Pen]WQ[dK]-NH2
modifications: disulfide 1-7 (inferred); also: homodimer linked by DIG
B12: SEQ ID NO 76 (peptide)
peptide: XRSDTLXWK
modifications: (Ac-Pen-(N-Me-R)-S-D-T-L-Pen-W-k-OH)2-DIG; disulfide
B13: SEQ ID NO 72 (peptide)
peptide: Ac-[Pen][NMeR]SDTL[Pen]W[dE][dK]-NH2
modifications: disulfide 1-7 (inferred); also: homodimer linked by IDA, IDA-PEG4-Biotine
B14: SEQ ID NO 70 (peptide)
peptide: Ac-[Pen][NMeR]SDTL[Pen]W[dE][dK]-NH2
modifications: disulfide 1-7 (inferred); also: homodimer linked by IDA
B15: SEQ ID NO 55 (peptide)
peptide: Ac-[Pen][NMeR]SDTL[Pen]W[dE][Dap]-NH2
modifications: disulfide 1-7 (inferred)
B16: SEQ ID NO 189 (peptide)
peptide: Ac-[Pen][NMeR]SQIQ[Pen][Phe(4-tBu)][β3hE][dK]-NH2
modifications: disulfide 1-7 (inferred); also: homodimer via DIG
B17: SEQ ID NO 64 (peptide)
peptide: Ac-[Pen][NMeR]SDTL[Pen]W[dE][Dab]
modifications: disulfide 1-7 (inferred); not fully specified (residue 10); printed as Ac-Pen-(N-Me-R)-S-D-T-L-Pen-W-e-Dab-Ac
B18: SEQ ID NO 31 (peptide)
peptide: Ac-[Pen][NMeR]SDTL[Pen]W[NMeE][dK]-NH2
modifications: disulfide 1-7 (inferred); also: homodimer via DIG linker
B19: SEQ ID NO 2 (peptide)
peptide: Ac-[Pen][NMeR]SDTL[Pen][dF][dE][dK]-NH2
modifications: disulfide 1-7 (inferred); also: homodimer via DIG
B20: SEQ ID NO 36 (peptide)
peptide: Ac-C[NMeR]SDTL[Pen]W[dK]-NH2
modifications: disulfide 1-7 (inferred); also: homodimer via PEG13 linker
B21: SEQ ID NO 4 (peptide)
peptide: Ac-[dK]C[NMeR]SDTLCW[dK]-NH2
modifications: disulfide 2-8 (inferred); also: dimer joined by DIG
B22: SEQ ID NO 5 (peptide)
peptide: Ac-[dK]C[NMeR]SDTLCW[dK]-NH2
modifications: disulfide 2-8 (inferred); not fully specified; printed as DIG-(Ac-k-C-(N-Me-R)-S-D-T-L-C-W-k-NH2)2-DIG
B23: SEQ ID NO 192 (peptide)
peptide: Ac-[Pen][NMeR]SQIQ[Pen][Phe(4-tBu)][β3hE][dK]-NH2
modifications: disulfide 1-7 (inferred); also: homodimer via IDA, Alexa-647 label on IDA
B24: SEQ ID NO 30 (peptide)
peptide: Ac-[Pen][NMeR]SDTL[Pen][dF]E[dK]-NH2
modifications: disulfide 1-7 (inferred); also: homodimer via DIG linker
B25: SEQ ID NO 60 (peptide)
peptide: Ac-[Pen][NMeR]SDTL[Pen]WE[Dap]
modifications: disulfide 1-7 (inferred); also: Ac written after C-terminal Dap, place unclear
B26: SEQ ID NO 190 (peptide)
peptide: Ac-[Pen][NMeR]SQIQ[Pen][Phe(4-tBu)][β3hE][dK]-NH2
modifications: disulfide 1-7 (inferred); also: homodimer via IDA
B27: SEQ ID NO 39 (peptide)
peptide: Ac-[Pen][NMeR]SDTL[Pen][2Nal][dE][dNMeK]-NH2
modifications: disulfide 1-7 (inferred); also: homodimer via DIG linker
B28: SEQ ID NO 56 (peptide)
peptide: Ac-[Pen][NMeR]SDTL[Pen]W[dE][Dab]-NH2
modifications: disulfide 1-7 (inferred)
B29: SEQ ID NO 34 (peptide)
peptide: Ac-[Pen][NMeR]SDTL[Pen][d1Nal]E[dK]-NH2
modifications: disulfide 1-7 (inferred); also: homodimer via DIG linker
B30: SEQ ID NO 59 (peptide)
peptide: Ac-[Pen][NMeR]SDTL[Pen]WE[Dap]-NH2
modifications: disulfide 1-7 (inferred)
B31: SEQ ID NO 63 (peptide)
peptide: Ac-[Pen][NMeR]SDTL[Pen]W[dE][Dap]
modifications: disulfide 1-7 (inferred); also: Ac written after C-terminal Dap, place unclear
B32: SEQ ID NO 45 (peptide)
peptide: Ac-[Pen][NMeR]SDTL[Pen][hPhe]E[dK]-NH2
modifications: disulfide 1-7 (inferred); also: homodimer via DIG linker
B33: SEQ ID NO 61 (peptide)
peptide: Ac-[Pen][NMeR]SDTL[Pen]WE[Dab]-NH2
modifications: disulfide 1-7 (inferred)
B34: SEQ ID NO 193 (peptide)
peptide: Ac-[Pen][NMeR]SDDL[Pen][Phe(4-tBu)][β3hE][dK]-NH2
modifications: disulfide 1-7 (inferred); also: homodimer via IDA, Alexa-647 label on IDA
B35: SEQ ID NO 62 (peptide)
peptide: Ac-[Pen][NMeR]SDTL[Pen]WE[Dab]
modifications: disulfide 1-7 (inferred); not fully specified (residue 10); printed as Ac-Pen-(N-Me-R)-S-D-T-L-Pen-W-E-Dab-Ac
B36: SEQ ID NO 188 (peptide)
peptide: Ac-[Pen][NMeR]SDIL[Pen][Phe(4-tBu)][β3hE][dK]-NH2
modifications: disulfide 1-7 (inferred); also: homodimer via IDA, Alexa-647 label on IDA
B37: SEQ ID NO 77 (peptide)
peptide: XRSDTLXWK
modifications: (Ac-Pen-(N-Me-R)-S-D-T-L-Pen-W-(N-Me-K)-NH2)2-DIG; disulfide

The binders below were run against α4β7 integrin on human cells (human, UniProt P13612 34-1032; P26010 20-798) (assay: cell-based or functional assay).

B1 and B2 cannot be ordered by “α4β7 cell (Hu) IC50” value: > 50 nM for the first, > 10000 nM for the second.

B3 and B4 cannot be ordered by “α4β7 cell (Hu) IC50” value: > 50 nM for the first, > 10000 nM for the second.

B5 and B6 cannot be ordered by “α4β7 cell (Hu) IC50” value: > 100 nM for the first, > 100 nM for the second.

B7 and B8 cannot be ordered by “α4β7 cell (Hu) IC50” value: > 25 nM for the first, > 25 nM for the second.

B9 and B10 cannot be ordered by “α4β7 cell (Hu) IC50” value: > 50 nM for the first, > 10000 nM for the second.

B11 and B12 cannot be ordered by “α4β7 cell (Hu) IC50” value: > 50 nM for the first, > 10 nM for the second.

B13 and B14 cannot be ordered by “α4β7 cell (Hu) IC50” value: > 25 nM for the first, > 25 nM for the second.

B15 and B16 cannot be ordered by “α4β7 cell (Hu) IC50” value: > 100 nM for the first, > 10000 nM for the second.

B17 and B18 cannot be ordered by “α4β7 cell (Hu) IC50” value: > 1000 nM for the first, > 50 nM for the second.

B19 and B20 cannot be ordered by “α4β7 cell (Hu) IC50” value: > 100 nM for the first, > 50 nM for the second.

B21 and B22 cannot be ordered by “α4β7 cell (Hu) IC50” value: > 10 nM for the first, > 50 nM for the second.

B23 and B24 cannot be ordered by “α4β7 cell (Hu) IC50” value: > 10000 nM for the first, > 100 nM for the second.

B25 and B26 cannot be ordered by “α4β7 cell (Hu) IC50” value: > 1000 nM for the first, > 100000 nM for the second.

B27 and B28 cannot be ordered by “α4β7 cell (Hu) IC50” value: > 10 nM for the first, > 500 nM for the second.

B29 and B30 cannot be ordered by “α4β7 cell (Hu) IC50” value: > 25 nM for the first, > 10000 nM for the second.

B31 and B32 cannot be ordered by “α4β7 cell (Hu) IC50” value: > 1000 nM for the first, > 25 nM for the second.

B33 and B34 cannot be ordered by “α4β7 cell (Hu) IC50” value: > 1000 nM for the first, > 100000 nM for the second.

Compared with B35, B36 is lower in “α4β7 cell (Hu) IC50” value: > 1000 nM for the first, ≤ 10 nM for the second.

With B37 the “α4β7 cell (Hu) IC50” value was > 100 nM.

Source: patent publication US20160159862A1 (PROTAGONIST THERAPEUTICS, published 2016)
